In patent US7138103:

Legend:
[1] = target: Ac-Lys(DTPA)-Tyr-Lys(DTPA)-Lys(Tscg-Cys)-NH2 (IMP 192); assay: in vivo, GW-39 tumor in nude mice, calculated from biodistribution assuming one peptide per bsAb; 3 h after peptide
[2] = target: carcinoembryonic antigen (CEA) (UniProt P06731); assay: analytical size exclusion HPLC, radioiodinated bsAb with 10-20× molar excess of CEA
[3] = target: Ac-Lys(DTPA)-Tyr-Lys(DTPA)-Lys(Tscg-Cys)-NH2 (IMP 192); assay: in vivo, GW-39 tumor in nude mice, calculated from biodistribution assuming one peptide per bsAb; 1 h after peptide
[4] = target: Ac-Lys(DTPA)-Tyr-Lys(DTPA)-Lys(Tscg-Cys)-NH2 (IMP 192); assay: in vivo, GW-39 tumor in nude mice, calculated from biodistribution assuming one peptide per bsAb; 30 min after peptide
[5] = target: Ac-Lys(DTPA)-Tyr-Lys(DTPA)-Lys(Tscg-Cys)-NH2 (IMP 192); assay: in vivo, GW-39 tumor in nude mice, calculated from biodistribution assuming one peptide per bsAb; 24 h after peptide
[6] = target: mono HSG peptide (peptide containing a single HSG substituent and a thiol); assay: BIAcore, mono HSG peptide coupled by its thiol to a CM-5 chip

Sequence of carcinoembryonic antigen (CEA) (P06731 35-685 limits assumed): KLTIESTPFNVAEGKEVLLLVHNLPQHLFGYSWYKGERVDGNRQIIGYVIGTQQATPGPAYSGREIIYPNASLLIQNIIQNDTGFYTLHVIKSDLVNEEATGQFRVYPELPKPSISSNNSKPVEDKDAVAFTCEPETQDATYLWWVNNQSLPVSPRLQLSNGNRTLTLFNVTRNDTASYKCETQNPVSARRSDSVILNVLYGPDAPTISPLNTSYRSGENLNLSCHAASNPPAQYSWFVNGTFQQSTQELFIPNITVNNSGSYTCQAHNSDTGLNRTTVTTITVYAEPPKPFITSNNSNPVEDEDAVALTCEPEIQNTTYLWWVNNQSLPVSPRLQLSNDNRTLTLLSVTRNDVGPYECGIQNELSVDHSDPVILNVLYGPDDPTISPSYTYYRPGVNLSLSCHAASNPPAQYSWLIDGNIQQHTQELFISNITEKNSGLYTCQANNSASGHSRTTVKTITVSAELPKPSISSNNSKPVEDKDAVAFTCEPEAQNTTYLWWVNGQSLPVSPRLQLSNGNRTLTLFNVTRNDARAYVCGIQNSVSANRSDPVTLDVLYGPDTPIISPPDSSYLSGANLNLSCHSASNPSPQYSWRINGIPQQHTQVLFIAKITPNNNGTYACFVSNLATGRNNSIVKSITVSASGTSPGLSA

| % saturation on hMN-14 × 734 (available DTPA binding sites on the tumor bound bsAb filled with 99m-Tc-IMP-192) [1] [%] | percent of bsAb bound [2] [%] | % saturation on hMN-14 × 734 (available DTPA binding sites on the tumor bound bsAb filled with 99m-Tc-IMP-192) [3] [%] | % saturation on hMN-14 × 734 (available DTPA binding sites on the tumor bound bsAb filled with 99m-Tc-IMP-192) [4] [%] | % saturation on hMN-14 × 734 (available DTPA binding sites on the tumor bound bsAb filled with 99m-Tc-IMP-192) [5] [%] | Kd [6] [nM] | Substance |
| --- | --- | --- | --- | --- | --- | --- |
| 25 | 90 | 25.8 | 25.4 | 28 |  | hMN-14 × 734 (Fab × Fab) bsAb (bispecific antibody) |
|  |  |  |  |  | 1.5 | hMN-14 × m679 F(ab′)2 bsMAb (bispecific antibody) |
